System: Escherichia coli TOP10
Experiment: shrunken log2 fold change of peptide-encoding DNA abundance (4.5 h post-induction vs induction); higher = less antimicrobial activity (less host growth inhibition)
Details: time post-induction: 4.5 h; library: site-saturation at positions 5, 18, 19, 20
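Note: peptides expressed intracellularly from a pBAD plasmid library in pooled LB shake-flask culture, induced with 0.3% L-arabinose, DNA abundance read by NGS, three biological replicates, DESeq2 with apeglm shrinkage.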

First: RRIRIRPPRLPRPRPRPARWPRP
Second: RRIRPRPPRLPRPRPRPNLLPRP
The “shrunken log2 fold change” value of the first is higher: 0.412 for the first, 0.0634 for the second.

Compared with RRIRQRPPRLPRPRPRPMGQPRP, RRIRFRPPRLPRPRPRPFPLPRP is lower in “shrunken log2 fold change” value: 0.0628 for the first, -0.289 for the second.

Compared with RRIRMRPPRLPRPRPRPWDFPRP, RRIRMRPPRLPRPRPRPHYRPRP is lower in “shrunken log2 fold change” value: 0.121 for the first, -0.223 for the second.

RRIRQRPPRLPRPRPRPWHVPRP and RRIRHRPPRLPRPRPRPMHMPRP are within 0.2 log units of each other in “shrunken log2 fold change” value: -0.0656 for the first, -0.0761 for the second.

RRIRCRPPRLPRPRPRPPMHPRP and RRIRWRPPRLPRPRPRPSQQPRP are within 0.2 log units of each other in “shrunken log2 fold change” value: 0.183 for the first, -0.002 for the second.

Going from RRIRSRPPRLPRPRPRPTAAPRP to RRIRWRPPRLPRPRPRPMTEPRP, the “shrunken log2 fold change” value falls from 1.03 to 0.804.

Compared with RRIRVRPPRLPRPRPRPCKGPRP, RRIRSRPPRLPRPRPRPFKMPRP is lower in “shrunken log2 fold change” value: -0.117 for the first, -0.357 for the second.

RRIRKRPPRLPRPRPRPDIFPRP and RRIRIRPPRLPRPRPRPTIQPRP are within 0.2 log units of each other in “shrunken log2 fold change” value: -0.178 for the first, -0.334 for the second.

First: RRIRRRPPRLPRPRPRPDGCPRP
Second: RRIRWRPPRLPRPRPRPRRLPRP
The “shrunken log2 fold change” value of the first is lower: 0.165 for the first, 0.474 for the second.

Compared with RRIRWRPPRLPRPRPRPVRMPRP, RRIRSRPPRLPRPRPRPVRAPRP is higher in “shrunken log2 fold change” value: -0.0133 for the first, 0.655 for the second.

RRIRHRPPRLPRPRPRPMCMPRP and RRIRDRPPRLPRPRPRPADVPRP are within 0.2 log units of each other in “shrunken log2 fold change” value: 0.201 for the first, 0.384 for the second.

First: RRIRLRPPRLPRPRPRPSDPPRP
Second: RRIRQRPPRLPRPRPRPNDKPRP
The “shrunken log2 fold change” value of the first is higher: -0.0539 for the first, -0.335 for the second.

Going from RRIRQRPPRLPRPRPRPPRNPRP to RRIRRRPPRLPRPRPRPNHVPRP, the “shrunken log2 fold change” value falls from 0.765 to -0.443.

Going from RRIRGRPPRLPRPRPRPMLEPRP to RRIRDRPPRLPRPRPRPTAQPRP, the “shrunken log2 fold change” value falls from 0.778 to 0.0542.

RRIRRRPPRLPRPRPRPGRSPRP and RRIRTRPPRLPRPRPRPTDIPRP are within 0.2 log units of each other in “shrunken log2 fold change” value: -0.104 for the first, 0.0221 for the second.

RRIRCRPPRLPRPRPRPATDPRP and RRIRFRPPRLPRPRPRPYWFPRP are within 0.2 log units of each other in “shrunken log2 fold change” value: -0.112 for the first, -0.0527 for the second.

Going from RRIRGRPPRLPRPRPRPCTNPRP to RRIRRRPPRLPRPRPRPYYQPRP, the “shrunken log2 fold change” value falls from 0.247 to -0.617.

First: RRIRHRPPRLPRPRPRPYHKPRP
Second: RRIRDRPPRLPRPRPRPKIYPRP
The “shrunken log2 fold change” value of the first is higher: -0.412 for the first, -0.684 for the second.

RRIRSRPPRLPRPRPRPVEDPRP and RRIRIRPPRLPRPRPRPIADPRP are within 0.2 log units of each other in “shrunken log2 fold change” value: -0.0519 for the first, -0.0882 for the second.

Going from RRIRRRPPRLPRPRPRPASWPRP to RRIRLRPPRLPRPRPRPAILPRP, the “shrunken log2 fold change” value falls from 0.337 to 0.0331.

Compared with RRIRQRPPRLPRPRPRPLAAPRP, RRIRTRPPRLPRPRPRPPGGPRP is higher in “shrunken log2 fold change” value: 0.395 for the first, 0.637 for the second.

Compared with RRIRFRPPRLPRPRPRPPPGPRP, RRIRKRPPRLPRPRPRPKHMPRP is lower in “shrunken log2 fold change” value: 1.34 for the first, 0.03 for the second.

RRIRFRPPRLPRPRPRPHFFPRP and RRIRNRPPRLPRPRPRPPMHPRP are within 0.2 log units of each other in “shrunken log2 fold change” value: -0.053 for the first, 0.0449 for the second.

Going from RRIRERPPRLPRPRPRPYDKPRP to RRIRNRPPRLPRPRPRPMVNPRP, the “shrunken log2 fold change” value rises from -1.41 to -0.00142.

Compared with RRIRTRPPRLPRPRPRPMYGPRP, RRIRGRPPRLPRPRPRPWITPRP is lower in “shrunken log2 fold change” value: -0.000687 for the first, -0.204 for the second.

Compared with RRIRSRPPRLPRPRPRPPQYPRP, RRIRWRPPRLPRPRPRPMKFPRP is lower in “shrunken log2 fold change” value: -0.0375 for the first, -0.278 for the second.

First: RRIRLRPPRLPRPRPRPMSYPRP
Second: RRIRQRPPRLPRPRPRPPHMPRP
The “shrunken log2 fold change” value of the first is lower: -0.25 for the first, 0.287 for the second.

RRIRCRPPRLPRPRPRPVFTPRP and RRIRCRPPRLPRPRPRPGLMPRP are within 0.2 log units of each other in “shrunken log2 fold change” value: -0.211 for the first, -0.102 for the second.

RRIRERPPRLPRPRPRPPIRPRP and RRIRWRPPRLPRPRPRPHCGPRP are within 0.2 log units of each other in “shrunken log2 fold change” value: -0.0192 for the first, -0.0645 for the second.

First: RRIRMRPPRLPRPRPRPQHHPRP
Second: RRIRVRPPRLPRPRPRPGGEPRP
The “shrunken log2 fold change” value of the first is lower: -0.0825 for the first, 0.386 for the second.

RRIRARPPRLPRPRPRPQIEPRP and RRIRWRPPRLPRPRPRPVSIPRP are within 0.2 log units of each other in “shrunken log2 fold change” value: 0.234 for the first, 0.235 for the second.

Compared with RRIRSRPPRLPRPRPRPFWQPRP, RRIRTRPPRLPRPRPRPFSDPRP is lower in “shrunken log2 fold change” value: 0.909 for the first, -0.399 for the second.

Going from RRIRDRPPRLPRPRPRPFPFPRP to RRIRIRPPRLPRPRPRPPIKPRP, the “shrunken log2 fold change” value falls from -0.163 to -0.4.

Compared with RRIRVRPPRLPRPRPRPCRQPRP, RRIRWRPPRLPRPRPRPAWCPRP is higher in “shrunken log2 fold change” value: -0.0134 for the first, 0.469 for the second.

First: RRIRWRPPRLPRPRPRPCIPPRP
Second: RRIRRRPPRLPRPRPRPPTMPRP
The “shrunken log2 fold change” value of the first is lower: -0.0746 for the first, 0.374 for the second.

RRIRDRPPRLPRPRPRPIRGPRP and RRIRTRPPRLPRPRPRPTGFPRP are within 0.2 log units of each other in “shrunken log2 fold change” value: -0.0417 for the first, -0.0124 for the second.

Compared with RRIRCRPPRLPRPRPRPKWLPRP, RRIRMRPPRLPRPRPRPFLKPRP is lower in “shrunken log2 fold change” value: -0.0375 for the first, -0.636 for the second.

With RRIRSRPPRLPRPRPRPRMWPRP the “shrunken log2 fold change” value was 0.114.

From the supplement of paper PMC9112550, “Optimization of the antimicrobial peptide Bac7 by deep mutational scanning” (BMC Biology, 2022)
